Results reported in paper PMC2172055.

Legend:
[1] = target: Sec61α (canine (endogenous in MDCK)) (UniProt P38377); assay: FRET or BRET
[2] = target: Sec61β (canine (endogenous in MDCK)) (UniProt P60467); assay: FRET or BRET
Sec61β (canine (endogenous in MDCK)), sequence (P60467 whole entry): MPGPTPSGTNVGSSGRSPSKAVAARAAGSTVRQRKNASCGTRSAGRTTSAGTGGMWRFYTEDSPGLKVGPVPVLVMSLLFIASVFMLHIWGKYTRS

Sec61α, sequence (P38377 whole entry): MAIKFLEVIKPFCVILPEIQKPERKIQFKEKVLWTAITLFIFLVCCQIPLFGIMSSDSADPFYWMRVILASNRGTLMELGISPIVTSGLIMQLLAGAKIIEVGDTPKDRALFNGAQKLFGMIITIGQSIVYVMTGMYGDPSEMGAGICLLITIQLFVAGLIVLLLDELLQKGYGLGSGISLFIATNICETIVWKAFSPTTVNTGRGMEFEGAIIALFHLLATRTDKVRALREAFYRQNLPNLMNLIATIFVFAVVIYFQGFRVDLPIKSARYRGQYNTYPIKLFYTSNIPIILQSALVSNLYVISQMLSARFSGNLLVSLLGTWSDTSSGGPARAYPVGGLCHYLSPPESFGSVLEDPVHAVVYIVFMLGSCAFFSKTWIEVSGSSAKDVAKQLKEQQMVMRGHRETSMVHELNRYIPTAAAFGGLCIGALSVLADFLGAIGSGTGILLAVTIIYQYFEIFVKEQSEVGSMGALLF
Sec61α (canine (endogenous in MDCK)), sequence (P38377 whole entry): as above
Sec61β, sequence (P60467 whole entry): as the sequence (P60467 whole entry) above

Substance | FRET efficiency (pactamycin-treated cells) [1] [%] | FRET efficiency (puromycin-treated cells) [1] [%] | FRET efficiency (untreated cells) [1] [%] | FRET efficiency (pactamycin-treated cells) [2] [%] | FRET efficiency (puromycin-treated cells) [2] [%] | FRET efficiency (untreated cells) [2] [%] | FRET efficiency (untreated cells, Fig. 3 B) [2] [%] | FRET efficiency (untreated cells, Fig. 3 A, donor to acceptor antibody 1:8) [2] [%] | stoichiometry N [2]
Sec61α (from UniProt P38377 1-476) (natural protein) | 35.5 | 33.6 | 38.3 | 28 | 27.9 | 26.4 | 30 |  | 
Sec61β (from UniProt P60467 1-96) (natural protein) | 46.8 | 46.1 | 41.8 | 23.9 | 24.8 | 21.4 |  | 17 | > 2
